Reference: paper PMC3433420
Blank lines part the entries; values can stand above or below the binder they belong to.

Key:
[1] = target: MET pY1313 phosphopeptide, rhodamine-labelled; assay: fluorescence polarisation; saturation binding in solution: rhodamine peptide fixed at 10 nM, protein titrated 0.002-10 uM, 20 min at room temperature; assay buffer 20 mM HEPES, 100 mM KCl, 0.1% Tween-20, 5 mM DTT, pH 7.8; apparent KD
[2] = target: ErbB1 pY801 phosphopeptide, rhodamine-labelled (human); assay: as above
[3] = target: ErbB4 pY906 phosphopeptide, rhodamine-labelled (human); assay: as above
[4] = target: phosphopeptides corresponding to ErbB1 intracellular tyrosine sites (human); assay: fluorescence polarisation; saturation binding in solution; rhodamine-labeled peptide fixed at 10 nM, protein titrated 0.002-10 µM (twelve two-fold dilutions); 20 minutes at room temperature in the dark; assay buffer 20 mM HEPES, 100 mM KCl, 0.1% Tween-20, 5 mM DTT, pH 7.8; apparent KD; assay detection threshold of 20 µM
[5] = target: phosphopeptides corresponding to ErbB2 intracellular tyrosine sites (human); assay: as above
[6] = target: phosphopeptides corresponding to ErbB4 intracellular tyrosine sites (human); assay: as above

Kd [1]: 5.89 µM
Kd [2]: 5.35 µM
B1: TNS3 SH2 domain (domain or fragment)
chain: WYKADISREQAIAMLKDKEPGSFIVRDSHSFRGAYGLAMKVATPPPSVLQLNKKAGDLANELVRHFLIECTPKGVRLKGCSNEPYFGSLTALVCQHSITPLALPCKLLIPE

Kd [3]: 540 nM
B2: SHC3 SH2 domain (domain or fragment)
chain: WYQGEMSRKEAEGLLEKDGDFLVRKSTTNPGSFVLTGMHNGQAKHLLLVDPEGTIRTKDRVFDSISHLINHHLESSLPIVSAGSELCLQQPV

Kd [1]: 17 µM
B3: VAV2 SH2 domain (domain or fragment)
chain: WFAGNMERQQTDNLLKSHASGTYLIRERPAEAERFAISIKFNDEVKHIKVVEKDNWIHITEAKKFDSLLELVEYYQCHSLKESFKQLDTTLKYPY

Kd [4]: 1000 nM
Kd [5]: 1000 nM
Kd [6]: 1000 nM
B4: GRAP2 SH2 domain (domain or fragment)
chain: WFHEGLSRHQAENLLMGKEVGFFIIRASQSSPGDFSISVRHEDDVQHFKVMRDNKGNYFLWTEKFPSLNKLVDYYRTNSISRQKQIFLRDRT
